Source: article PMC4297517 (Journal of molecular biology, 2014)

Biological target: ClpB_(E279A,E678A) (E. coli, UniProt P63284 1-857, E279A | E678A)
Assay: fluorescence polarisation

binding result | Binder
binds | DnaK_(py-N282A*) (natural protein, N-(1-pyrene)maleimide label (K106C introduced for labeling); degree of labeling between 0.1 and 0.5) not shown
binds | DnaK_(py-Q57A*) (natural protein, N-(1-pyrene)maleimide label (K106C introduced for labeling); degree of labeling between 0.1 and 0.5) not shown
